Experimental data as given in US20120015885A1.

Molecular target: CaMKIV
Assay: cell-based or functional assay

YGRKKRRQRRRKRPPKLGQIGRSKRVVIEDDR (modifications not checked) [tatCN21] showed a kinase activity in a kinase panel, 5 µM tatCN21, reduction of 35%.
